Laboratory results reported in US20180079808A1 (AbbVie / Abbott, published 2018).

B1: 13C5.5, humanized recombinant immunoglobulin IgG1 (IgG1, κ) monoclonal antibody (antibody, V domains shown)
VH: EVTLRESGPGLVKPTQTLTLTCTLYGFSLSTSDMGVDWIRQPPGKGLEWLAHIWWDDVKRYNPALKSRLTISKDTSKNQVVLKLTSVDPVDTATYYCARTVSSGYIYYAMDYWGQGTLVTVSS
VL: DIQMTQSPSSLSASVGDRVTISCRASQDIRNYLNWYQQKPGKAPKLLIFYTSKLHSGVPSRFSGSGSGTDYTLTISSLQPEDIATYYCQQGNTLPLTFGGGTKVEIK
B2: Fab portion of 13C5.5 antibody (Fab, V domains shown)
VH: B1 VH
VL: B1 VL
notes: Fab used for the crystal structure with human IL-13; also called 13C5.5 Fab
B3: 5G1 (antibody, V domains shown)
VH: QVQLQQSGAELARPGTSVKLSCKASGYTFTTYGVSWVKQRTGQGLEWIGEIYPGNYNTYYNEKFRGKATLTADKSSSTAYMQLSSLTSEDSAVYFCSRWRTSYFSDYGYFDYWGQGTTLTVSS
VL: DVVMTQTPLSLPVSLGDQASISCRSSQSLVHSHGNTYLHWYLQKPGQSPKLLIYTVSNRFSGVPDRFSGSGSGTDFTLKISRVEAEDLGVYFCSQSTHVPYTFGGGTKLEIKR
B4: 9C11 (antibody, V domains shown)
VH: QVRLQQPGAELVRPGASVKLSCKASGYTFTSSWIHWVNQRPGQGLEWIGMIHPSDSETRLNQKFKDKATLTVDKSSSTAYMQLSSPTSEDSAVYYCASTATDFDYWGQGTTLTVSS
VL: DVVLTQTPLSLPVNIGDQASISCRSTQTLLNSDGFTYLDWYLQKPGQSPQLLIYLVSNRFSGVPDRFSGSGSGTDFTLKISRVEAEDLGVYYCFQNNYLPLTFGAGTKLELKR

Columns and labels:
cynomolgus monkey rIL-13 [1] = target: T1, cynomolgus monkey rIL-13 (cynomolgus monkey, UniProt Q0PW92 21-132); assay: cell-based or functional assay
T1 sequence (Q0PW92 entry or part of it): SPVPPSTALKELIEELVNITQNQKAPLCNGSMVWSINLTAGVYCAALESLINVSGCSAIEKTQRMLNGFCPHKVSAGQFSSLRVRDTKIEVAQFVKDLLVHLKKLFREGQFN

rat rIL-13 = target: T2, rat rIL-13 (rat, UniProt P42203 19-131, limits assumed); assay: cell-based or functional assay
T2 sequence (looked up): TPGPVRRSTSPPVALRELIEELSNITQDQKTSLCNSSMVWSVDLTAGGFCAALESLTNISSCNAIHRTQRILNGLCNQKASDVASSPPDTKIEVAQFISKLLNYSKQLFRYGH

human IL-13 wild type [2] = target: T3, human IL-13 wild type (human, UniProt P35225 35-146, limits assumed); assay: crystal structure of the complex
T3 construct: also called IL-13 wt; rh IL-13
T3 sequence (P35225 other isoform, or with tags, fused parts or gaps limits assumed): as the sequence (Q0PW92 entry or part of it) above, with S1G, K10R, V42M, N67S, R83H, V100L, Q110R counted along it

cynomolgus monkey rIL-13 [3] = target: T1, cynomolgus monkey rIL-13; assay: cell-based or functional assay; remark: listed apart in the source
human IL-13 wild type [4] = target: T3, human IL-13 wild type; assay: cell-based or functional assay
[5] = target: T4, human IL-13 variant (R130Q) (human, UniProt P35225 35-146, limits assumed); assay: cell-based or functional assay
T4 sequence (P35225 35-146 limits assumed, stated change not applied): as the sequence (Q0PW92 entry or part of it) above, with S1G, K10R, V42M, N67S, R83H, V100L counted along it

[6] = target: T4, human IL-13 variant (R130Q); assay: column 'Affinity, KD (nM)', hIL-13v; method not given
human IL-13 wild type [7] = target: T3, human IL-13 wild type; assay: column 'Affinity, KD (nM)', hIL-13wt; method not given

Binder | fold lower in vitro potency compared to human rIL-13 (cynomolgus monkey rIL-13 [1]) [fold] | half maximal inhibitory concentration (IC50), in vitro neutralization (cynomolgus monkey rIL-13 [1]) [nM] | IC50, in vitro neutralization (rat rIL-13) [nM] | fold lower in vitro potency compared to human rIL-13 (rat rIL-13) [fold] | binding result (human IL-13 wild type [2]) | Potency, IC50 (neutralisation of Cyno IL-13; assay not given) (cynomolgus monkey rIL-13 [3]) [nM] | Potency, IC50 (neutralisation of hIL-13wt; assay not given) (human IL-13 wild type [4]) [nM] | Potency, IC50 (neutralisation of hIL-13v; assay not given) [5] [nM] | Kd [6] [nM] | Kd (human IL-13 wild type [7]) [nM]
B1 | 51 | 4.1 | 12.4 | 155 |  |  |  |  |  | 
B2 |  |  |  |  | binds |  |  |  |  | 
B3 |  |  |  |  |  | 0.612 | 0.076 | 0.048 | 0.13 | 0.008
B4 |  |  |  |  |  | 0.64 | 0.184 | 0.17 | 0.092 | 0.112
